Data reported in patent publication US20200002405A1.
Like-named read-outs stand apart in the source and are kept apart here.

B1: 25.10C (antibody, V domains shown)
VH: QVQLQESGGGLVKPGGSLRLSCTASGFNFNKYNMNWVRQAPGKGLEWVSSISALSTYIYYADSLKGRFTVSRDNAKNSLFLQMNSLRDDDTAVYYCAREIRRASTWSADLWGRGTLVTVSS
VL: DIQMTQSPSSLSASVGDRVIITCRASQSISSSLNWYQQKPGKAPKLLIYAAVNLETGVPSRFSGSGFGTDFTLAISNVQPEDFATYYCQQSDTRTFGRGTKLDVKR
B2: 19.7E (antibody, V domains shown)
VH: EVQLVESGGGLVRPGGSLRLSCAASGFSFSSYSMHWVRHVPGKGLVWVSYINSDGSTKIYADSVKGRFSISRDNAKNKLYLQMDSLRVEDTAVYSCVRLVHYDWSPFVWGQGTLVTVSS
VL: EIVLTQSPSTLSASVGDRVTITCRASQSINNWLAWYQEKPGKAPKLLINKASSLESGVPSRFSGSGSGTEFTLTITSLQPDDFATYYCQQYNSNSWTFGQGTKVDMKR

Key:
Assay in all cases: cell-based or functional assay
[1] = molecular target: LASV Josiah (lineage IV) glycoprotein, full-length GP (Lassa virus, Josiah strain) (UniProt P08669)
LASV Josiah (lineage IV) glycoprotein, full-length GP (Lassa virus, Josiah strain), sequence (P08669 2-491): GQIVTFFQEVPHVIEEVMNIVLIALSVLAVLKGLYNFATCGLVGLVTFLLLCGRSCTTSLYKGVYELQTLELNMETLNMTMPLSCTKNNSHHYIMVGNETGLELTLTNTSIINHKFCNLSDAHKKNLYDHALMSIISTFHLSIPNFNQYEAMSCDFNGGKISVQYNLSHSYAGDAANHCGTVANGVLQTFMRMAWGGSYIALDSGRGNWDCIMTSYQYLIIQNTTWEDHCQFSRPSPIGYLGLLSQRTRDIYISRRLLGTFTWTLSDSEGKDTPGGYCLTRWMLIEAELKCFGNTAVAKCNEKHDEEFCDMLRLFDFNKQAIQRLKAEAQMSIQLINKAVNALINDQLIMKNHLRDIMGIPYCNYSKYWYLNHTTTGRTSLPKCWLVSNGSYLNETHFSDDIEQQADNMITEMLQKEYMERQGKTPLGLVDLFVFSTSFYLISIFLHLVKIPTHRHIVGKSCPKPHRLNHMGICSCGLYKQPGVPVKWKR

[2] = molecular target: LASV Josiah (lineage IV) glycoprotein, full-length GP (Lassa virus, Josiah strain) (UniProt P08669); remark: listed apart in the source
[3] = molecular target: LASV 237 (lineage III) glycoprotein (Lassa virus, strain 237)
[4] = molecular target: LASV Pinneo (lineage I) glycoprotein (Lassa virus, strain Pinneo)
[5] = molecular target: LASV A19 (lineage II) glycoprotein (Lassa virus, strain A19)

Binder | IC50 (neutralization) [1] | IC80 (neutralization) [1] | IC50 (neutralization) [2] | IC80 (neutralization) [2] | IC50 (neutralization) [3] | IC80 (neutralization) [3] | IC50 (neutralization) [4] | IC80 (neutralization) [4] | IC50 (neutralization) [5] | IC80 (neutralization) [5]
B1 | 0.16 µg/mL | 0.247 µg/mL | 0.094 µg/mL | 0.174 µg/mL | 0.058 µg/mL | 0.18 µg/mL | 0.226 µg/mL | 0.564 µg/mL | 0.104 µg/mL | 0.364 µg/mL
B2 | 1.19 µg/mL | > 10 µg/mL | 5.91 µg/mL | > 20 µg/mL | 1.06 µg/mL | 15 µg/mL | 1.56 µg/mL | 3.27 µg/mL | > 20 µg/mL | > 20 µg/mL
